The target of this data set is Sam68-6H (UniProt Q07666 1-443). Description: EMSA. The settings on record: protein: recombinant; tags: 6xHis (pET30c+); chain copies: 2; label: 5' biotin; two UAAA motifs predicted unpaired.
Sam68-6H, sequence (Q07666 whole entry): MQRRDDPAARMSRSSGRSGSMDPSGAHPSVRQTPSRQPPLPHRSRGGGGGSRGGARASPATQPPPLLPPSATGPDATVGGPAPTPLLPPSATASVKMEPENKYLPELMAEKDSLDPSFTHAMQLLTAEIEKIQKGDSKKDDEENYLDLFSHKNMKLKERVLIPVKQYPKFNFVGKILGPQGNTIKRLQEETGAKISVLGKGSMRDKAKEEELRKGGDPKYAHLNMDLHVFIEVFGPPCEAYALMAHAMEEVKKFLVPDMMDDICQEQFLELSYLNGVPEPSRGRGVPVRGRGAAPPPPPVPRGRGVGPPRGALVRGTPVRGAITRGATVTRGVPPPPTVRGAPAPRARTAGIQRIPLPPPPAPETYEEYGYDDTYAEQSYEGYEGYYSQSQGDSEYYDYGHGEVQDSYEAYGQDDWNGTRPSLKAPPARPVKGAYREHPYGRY

B1: WT domain 4 probe (ssRNA)
RNA: AAGGGGACCGGGGCUUCUAUAAAAGCGCCCGGUUUAAAAAGCUUCUAUGUCUGAAUAGGUGACCG
Take B1: the “apparent K (half saturation)” value is roughly 3.16 µM.

Values taken from article PMC4689063.
